Source: the supplement of paper PMC10567573

B1: C19orf51 (parent)
chain: FAPQTGARPSETFARFCKSQESAL
B2: MLL5 (parent)
chain: HDDGYMICCDKCSVWQHIDCMGID

Variants of: B1
Test: protein stability index of a GFP-peptide fusion (GPS, HEK-293T) (PSI 1-6); higher = more stable
Conditions: c terminus: a fixed tail appended
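Note: lentivirally expressed fusions sorted by FACS into six bins by GFP to DsRed ratio, PSI derived from sequencing read proportions per bin multiplied by bin number.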

Variant	protein stability index
FAPQTGARPSETFANFCKSQESAL [R15N]	3.83
FAPQTGARPSETFARACKSQESAL [F16A]	2.44
FAPQTGAYPSETFARFCKSQESAL [R8Y]	1.81
FAPQTGARPSEVFARFCKSQESAL [T12V]	2.77
FAPQTGARPSETFARFCKSQESQL [A23Q]	1.82
FAPQTGARPSETFARFCKSQETAL [S22T]	1.88
FAPQTGALPSETFARFCKSQESAL [R8L]	3.45
FAPQTGARPSETFARFEKSQESAL [C17E]	1.09
FAPQTGARRSETFARFCKSQESAL [P9R]	2.62

Variants of: B2
Test: as above
Conditions: c terminus: a fixed tail appended

Variant	protein stability index
ADDGYMICCDKCSVWQHIDCMGID [H1A]	2.42
CDDGYMICCDKCSVWQHIDCMGID [H1C]	2.1
DDDGYMICCDKCSVWQHIDCMGID [H1D]	2.83
EDDGYMICCDKCSVWQHIDCMGID [H1E]	2.5
FDDGYMICCDKCSVWQHIDCMGID [H1F]	1.66
GDDGYMICCDKCSVWQHIDCMGID [H1G]	2.25
IDDGYMICCDKCSVWQHIDCMGID [H1I]	1.98
KDDGYMICCDKCSVWQHIDCMGID [H1K]	2.95
LDDGYMICCDKCSVWQHIDCMGID [H1L]	2.47
MDDGYMICCDKCSVWQHIDCMGID [H1M]	1.57
NDDGYMICCDKCSVWQHIDCMGID [H1N]	2.73
PDDGYMICCDKCSVWQHIDCMGID [H1P]	1.86
QDDGYMICCDKCSVWQHIDCMGID [H1Q]	2.24
RDDGYMICCDKCSVWQHIDCMGID [H1R]	2.29
SDDGYMICCDKCSVWQHIDCMGID [H1S]	2.81
TDDGYMICCDKCSVWQHIDCMGID [H1T]	2.19
VDDGYMICCDKCSVWQHIDCMGID [H1V]	2.61
WDDGYMICCDKCSVWQHIDCMGID [H1W]	2.63
YDDGYMICCDKCSVWQHIDCMGID [H1Y]	3.85
HADGYMICCDKCSVWQHIDCMGID [D2A]	1.76
HCDGYMICCDKCSVWQHIDCMGID [D2C]	1.89
HEDGYMICCDKCSVWQHIDCMGID [D2E]	2.53
HFDGYMICCDKCSVWQHIDCMGID [D2F]	2.23
HGDGYMICCDKCSVWQHIDCMGID [D2G]	2.05
HHDGYMICCDKCSVWQHIDCMGID [D2H]	2.87
HIDGYMICCDKCSVWQHIDCMGID [D2I]	2.87

Variant	protein stability index
HKDGYMICCDKCSVWQHIDCMGID [D2K]	2.69
HLDGYMICCDKCSVWQHIDCMGID [D2L]	3.26
HMDGYMICCDKCSVWQHIDCMGID [D2M]	1.92
HNDGYMICCDKCSVWQHIDCMGID [D2N]	1.71
HPDGYMICCDKCSVWQHIDCMGID [D2P]	2.16
HQDGYMICCDKCSVWQHIDCMGID [D2Q]	2.04
HRDGYMICCDKCSVWQHIDCMGID [D2R]	2.02
HSDGYMICCDKCSVWQHIDCMGID [D2S]	2.16
HTDGYMICCDKCSVWQHIDCMGID [D2T]	2.99
HVDGYMICCDKCSVWQHIDCMGID [D2V]	2.02
HWDGYMICCDKCSVWQHIDCMGID [D2W]	1.84
HYDGYMICCDKCSVWQHIDCMGID [D2Y]	1.93
HDAGYMICCDKCSVWQHIDCMGID [D3A]	2.13
HDCGYMICCDKCSVWQHIDCMGID [D3C]	2.06
HDEGYMICCDKCSVWQHIDCMGID [D3E]	2.95
HDFGYMICCDKCSVWQHIDCMGID [D3F]	1.53
HDGGYMICCDKCSVWQHIDCMGID [D3G]	2.47
HDHGYMICCDKCSVWQHIDCMGID [D3H]	2.01
HDIGYMICCDKCSVWQHIDCMGID [D3I]	1.63
HDKGYMICCDKCSVWQHIDCMGID [D3K]	1.88
HDLGYMICCDKCSVWQHIDCMGID [D3L]	1.01
HDMGYMICCDKCSVWQHIDCMGID [D3M]	1.69
HDNGYMICCDKCSVWQHIDCMGID [D3N]	2.09
HDPGYMICCDKCSVWQHIDCMGID [D3P]	2.65
HDQGYMICCDKCSVWQHIDCMGID [D3Q]	2.43
HDRGYMICCDKCSVWQHIDCMGID [D3R]	2.02

Variant	protein stability index
HDSGYMICCDKCSVWQHIDCMGID [D3S]	1.69
HDTGYMICCDKCSVWQHIDCMGID [D3T]	2.41
HDVGYMICCDKCSVWQHIDCMGID [D3V]	2.75
HDWGYMICCDKCSVWQHIDCMGID [D3W]	1.88
HDYGYMICCDKCSVWQHIDCMGID [D3Y]	1.91
HDDAYMICCDKCSVWQHIDCMGID [G4A]	2.04
HDDCYMICCDKCSVWQHIDCMGID [G4C]	2.53
HDDDYMICCDKCSVWQHIDCMGID [G4D]	2.61
HDDEYMICCDKCSVWQHIDCMGID [G4E]	2.99
HDDFYMICCDKCSVWQHIDCMGID [G4F]	1.94
HDDHYMICCDKCSVWQHIDCMGID [G4H]	2.29
HDDIYMICCDKCSVWQHIDCMGID [G4I]	1.51
HDDKYMICCDKCSVWQHIDCMGID [G4K]	2.16
HDDLYMICCDKCSVWQHIDCMGID [G4L]	1.64
HDDMYMICCDKCSVWQHIDCMGID [G4M]	1.74
HDDNYMICCDKCSVWQHIDCMGID [G4N]	2.05
HDDPYMICCDKCSVWQHIDCMGID [G4P]	2.69
HDDQYMICCDKCSVWQHIDCMGID [G4Q]	2.2
HDDRYMICCDKCSVWQHIDCMGID [G4R]	2.73
HDDSYMICCDKCSVWQHIDCMGID [G4S]	2.38
HDDTYMICCDKCSVWQHIDCMGID [G4T]	2.04
HDDVYMICCDKCSVWQHIDCMGID [G4V]	2.1
HDDWYMICCDKCSVWQHIDCMGID [G4W]	2.56
HDDYYMICCDKCSVWQHIDCMGID [G4Y]	2.48
HDDGAMICCDKCSVWQHIDCMGID [Y5A]	3.46
HDDGCMICCDKCSVWQHIDCMGID [Y5C]	3.04

Variant	protein stability index
HDDGDMICCDKCSVWQHIDCMGID [Y5D]	3.14
HDDGEMICCDKCSVWQHIDCMGID [Y5E]	3.39
HDDGFMICCDKCSVWQHIDCMGID [Y5F]	1.74
HDDGGMICCDKCSVWQHIDCMGID [Y5G]	3.53
HDDGHMICCDKCSVWQHIDCMGID [Y5H]	3.79
HDDGIMICCDKCSVWQHIDCMGID [Y5I]	2.98
HDDGKMICCDKCSVWQHIDCMGID [Y5K]	3.53
HDDGLMICCDKCSVWQHIDCMGID [Y5L]	2.78
HDDGMMICCDKCSVWQHIDCMGID [Y5M]	2.83
HDDGNMICCDKCSVWQHIDCMGID [Y5N]	3.3
HDDGPMICCDKCSVWQHIDCMGID [Y5P]	2.9
HDDGQMICCDKCSVWQHIDCMGID [Y5Q]	3.19
HDDGRMICCDKCSVWQHIDCMGID [Y5R]	3.42
HDDGSMICCDKCSVWQHIDCMGID [Y5S]	2.84
HDDGTMICCDKCSVWQHIDCMGID [Y5T]	3.96
HDDGVMICCDKCSVWQHIDCMGID [Y5V]	2.96
HDDGWMICCDKCSVWQHIDCMGID [Y5W]	2.03
HDDGYAICCDKCSVWQHIDCMGID [M6A]	3.37
HDDGYCICCDKCSVWQHIDCMGID [M6C]	3.2
HDDGYDICCDKCSVWQHIDCMGID [M6D]	2.96
HDDGYEICCDKCSVWQHIDCMGID [M6E]	2.79
HDDGYFICCDKCSVWQHIDCMGID [M6F]	2.22
HDDGYGICCDKCSVWQHIDCMGID [M6G]	2.4
HDDGYHICCDKCSVWQHIDCMGID [M6H]	4.05
HDDGYIICCDKCSVWQHIDCMGID [M6I]	2.65
HDDGYKICCDKCSVWQHIDCMGID [M6K]	2.43

Variant	protein stability index
HDDGYLICCDKCSVWQHIDCMGID [M6L]	2.59
HDDGYNICCDKCSVWQHIDCMGID [M6N]	3.14
HDDGYPICCDKCSVWQHIDCMGID [M6P]	2.96
HDDGYQICCDKCSVWQHIDCMGID [M6Q]	2.46
HDDGYRICCDKCSVWQHIDCMGID [M6R]	3.35
HDDGYSICCDKCSVWQHIDCMGID [M6S]	2.91
HDDGYTICCDKCSVWQHIDCMGID [M6T]	2.41
HDDGYVICCDKCSVWQHIDCMGID [M6V]	3.1
HDDGYWICCDKCSVWQHIDCMGID [M6W]	2
HDDGYYICCDKCSVWQHIDCMGID [M6Y]	2.14
HDDGYMACCDKCSVWQHIDCMGID [I7A]	3.2
HDDGYMCCCDKCSVWQHIDCMGID [I7C]	3.79
HDDGYMDCCDKCSVWQHIDCMGID [I7D]	3.42
HDDGYMECCDKCSVWQHIDCMGID [I7E]	3.23
HDDGYMFCCDKCSVWQHIDCMGID [I7F]	2.72
HDDGYMGCCDKCSVWQHIDCMGID [I7G]	3.82
HDDGYMHCCDKCSVWQHIDCMGID [I7H]	3.55
HDDGYMKCCDKCSVWQHIDCMGID [I7K]	3.45
HDDGYMLCCDKCSVWQHIDCMGID [I7L]	2.06
HDDGYMMCCDKCSVWQHIDCMGID [I7M]	2.29
HDDGYMNCCDKCSVWQHIDCMGID [I7N]	3.12
HDDGYMPCCDKCSVWQHIDCMGID [I7P]	2.71
HDDGYMQCCDKCSVWQHIDCMGID [I7Q]	3.51
HDDGYMRCCDKCSVWQHIDCMGID [I7R]	2.45
HDDGYMTCCDKCSVWQHIDCMGID [I7T]	2.93
HDDGYMVCCDKCSVWQHIDCMGID [I7V]	2.79

Variant	protein stability index
HDDGYMWCCDKCSVWQHIDCMGID [I7W]	3.09
HDDGYMYCCDKCSVWQHIDCMGID [I7Y]	2.77
HDDGYMIACDKCSVWQHIDCMGID [C8A]	3.27
HDDGYMIDCDKCSVWQHIDCMGID [C8D]	3.19
HDDGYMIECDKCSVWQHIDCMGID [C8E]	2.73
HDDGYMIFCDKCSVWQHIDCMGID [C8F]	1.56
HDDGYMIGCDKCSVWQHIDCMGID [C8G]	2.59
HDDGYMIHCDKCSVWQHIDCMGID [C8H]	2.37
HDDGYMIICDKCSVWQHIDCMGID [C8I]	1.9
HDDGYMIKCDKCSVWQHIDCMGID [C8K]	2.25
HDDGYMILCDKCSVWQHIDCMGID [C8L]	2.46
HDDGYMIMCDKCSVWQHIDCMGID [C8M]	1.68
HDDGYMINCDKCSVWQHIDCMGID [C8N]	2.43
HDDGYMIPCDKCSVWQHIDCMGID [C8P]	3.12
HDDGYMIQCDKCSVWQHIDCMGID [C8Q]	2.96
HDDGYMIRCDKCSVWQHIDCMGID [C8R]	2.51
HDDGYMISCDKCSVWQHIDCMGID [C8S]	1.83
HDDGYMITCDKCSVWQHIDCMGID [C8T]	2.66
HDDGYMIVCDKCSVWQHIDCMGID [C8V]	1.64
HDDGYMIWCDKCSVWQHIDCMGID [C8W]	1.86
HDDGYMIYCDKCSVWQHIDCMGID [C8Y]	2.12
HDDGYMICADKCSVWQHIDCMGID [C9A]	2.56
HDDGYMICDDKCSVWQHIDCMGID [C9D]	3.74
HDDGYMICEDKCSVWQHIDCMGID [C9E]	3.42
HDDGYMICFDKCSVWQHIDCMGID [C9F]	2.43
HDDGYMICGDKCSVWQHIDCMGID [C9G]	3.81

Variant	protein stability index
HDDGYMICHDKCSVWQHIDCMGID [C9H]	2.86
HDDGYMICIDKCSVWQHIDCMGID [C9I]	2.1
HDDGYMICKDKCSVWQHIDCMGID [C9K]	2.85
HDDGYMICLDKCSVWQHIDCMGID [C9L]	2.12
HDDGYMICMDKCSVWQHIDCMGID [C9M]	1.99
HDDGYMICNDKCSVWQHIDCMGID [C9N]	2.77
HDDGYMICPDKCSVWQHIDCMGID [C9P]	3.03
HDDGYMICQDKCSVWQHIDCMGID [C9Q]	3
HDDGYMICRDKCSVWQHIDCMGID [C9R]	2.76
HDDGYMICSDKCSVWQHIDCMGID [C9S]	3.81
HDDGYMICTDKCSVWQHIDCMGID [C9T]	3.75
HDDGYMICVDKCSVWQHIDCMGID [C9V]	2.67
HDDGYMICWDKCSVWQHIDCMGID [C9W]	2.16
HDDGYMICYDKCSVWQHIDCMGID [C9Y]	1.47
HDDGYMICCAKCSVWQHIDCMGID [D10A]	1.71
HDDGYMICCCKCSVWQHIDCMGID [D10C]	2.71
HDDGYMICCEKCSVWQHIDCMGID [D10E]	2.41
HDDGYMICCFKCSVWQHIDCMGID [D10F]	2.44
HDDGYMICCGKCSVWQHIDCMGID [D10G]	1.92
HDDGYMICCIKCSVWQHIDCMGID [D10I]	3.54
HDDGYMICCKKCSVWQHIDCMGID [D10K]	2.51
HDDGYMICCMKCSVWQHIDCMGID [D10M]	2.95
HDDGYMICCNKCSVWQHIDCMGID [D10N]	2.41
